# Laboratory results as given in article PMC3737524, “The role of the C-terminal helix of U1A protein in the interaction with U1hpII RNA”.
# Legend:
# Conditions in all cases: protein: recombinant; tags: N-terminal His6; label: 5' biotin; hairpin
# U1A Asp92Phe = U1A Asp92Phe (UniProt P09012 1-101, D92F); assay: SPR; ka 6e7 M-1s-1; kd 1.0e-3 s-1; Biacore 2000 SPR; running buffer with 125 ug/ml yeast tRNA and 62.5 ug/ml acetylated BSA; buffer, salt, pH and temperature as previously described (not given in material)
# U1A Asp92Ala = U1A Asp92Ala (UniProt P09012 1-101, D92A); assay: SPR; ka 3.3e7 M-1s-1; kd 1.1e-3 s-1; Biacore 2000 SPR; running buffer with 125 ug/ml yeast tRNA and 62.5 ug/ml acetylated BSA; buffer, salt, pH and temperature as previously described (not given in material)
# U1A Asp92Glu = U1A Asp92Glu (UniProt P09012 1-101, D92E); assay: SPR; ka 4e7 M-1s-1; kd 9e-4 s-1; Biacore 2000 SPR; running buffer with 125 ug/ml yeast tRNA and 62.5 ug/ml acetylated BSA; buffer, salt, pH and temperature as previously described (not given in material)
# U1A90 = U1A90 (UniProt P09012 1-90); assay: SPR; ka 2.3e8 M-1s-1; kd 1.0 s-1; Biacore 2000 SPR; running buffer with 125 ug/ml yeast tRNA and 62.5 ug/ml acetylated BSA; buffer, salt, pH and temperature as previously described (not given in material)
# U1A Ile94Pro = U1A Ile94Pro (UniProt P09012 1-101, I94P); assay: SPR; ka 1.2e8 M-1s-1; kd 6e-2 s-1; Biacore 2000 SPR; running buffer with 125 ug/ml yeast tRNA and 62.5 ug/ml acetylated BSA; buffer, salt, pH and temperature as previously described (not given in material)
# U1A Thr11Ala = U1A Thr11Ala (UniProt P09012 1-101, T11A); assay: SPR; ka 7.1e7 M-1s-1; kd 1.5e-2 s-1; Biacore 2000 SPR; running buffer with 125 ug/ml yeast tRNA and 62.5 ug/ml acetylated BSA; buffer, salt, pH and temperature as previously described (not given in material)
# U1A95 = U1A95 (UniProt P09012 1-95); assay: SPR; ka 2.3e7 M-1s-1; kd 1.8e-2 s-1; Biacore 2000 SPR; running buffer with 125 ug/ml yeast tRNA and 62.5 ug/ml acetylated BSA; buffer, salt, pH and temperature as previously described (not given in material)
# Sequence of U1A95 (P09012 1-95): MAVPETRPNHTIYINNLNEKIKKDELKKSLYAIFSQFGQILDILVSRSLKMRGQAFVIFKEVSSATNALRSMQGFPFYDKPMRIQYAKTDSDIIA
# Sequence of U1A Asp92Ala (P09012 1-101 D92A): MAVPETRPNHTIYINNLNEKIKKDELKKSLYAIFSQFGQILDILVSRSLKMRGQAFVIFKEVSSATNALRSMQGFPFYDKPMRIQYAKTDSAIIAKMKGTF
# Sequence of U1A Thr11Ala (P09012 1-101 T11A): as the sequence (P09012 1-101 D92A) above, with T11A, A92D counted along it
# Sequence of U1A Ile94Pro (P09012 1-101 I94P): as the sequence (P09012 1-101 D92A) above, with A92D, I94P counted along it
# Sequence of U1A Asp92Phe (P09012 1-101 D92F): as the sequence (P09012 1-101 D92A) above, with A92F counted along it
# Sequence of U1A90 (P09012 1-90): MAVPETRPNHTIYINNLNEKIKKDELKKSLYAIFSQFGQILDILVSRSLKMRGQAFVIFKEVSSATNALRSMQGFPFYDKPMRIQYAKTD
# Sequence of U1A Asp92Glu (P09012 1-101 D92E): as the sequence (P09012 1-101 D92A) above, with A92E counted along it
binder,measurement,setting,value
AGCUUAUCCAUUGCACUCCGGAUGAGCU (structured_RNA) [U1hpII],Kd,U1A Asp92Phe,0.02 nM
same,Kd,U1A Asp92Ala,0.041 nM
same,Kd,U1A Asp92Glu,0.02 nM
same,Kd,U1A90,4.5 nM
same,Kd,U1A Ile94Pro,0.5 nM
same,Kd,U1A Thr11Ala,0.21 nM
same,Kd,U1A95,0.82 nM
